The text below walks through data of patent publication US20240279315A1 (priority 2023, published 2024).

Like-named read-outs stand apart in the source and are kept apart here. Bounds are passed on as bounds.

Common to all, as to test: cell-based or functional assay
Experiment [1] deals with hemagglutinin (HA) of influenza A/Hong Kong/4801/2014 H3N2 (influenza A virus A/Hong Kong/4801/2014 (H3N2)).
Experiment [2] addresses hemagglutinin (HA) of influenza A/Singapore/INFIMH-16-0019/2016 H3N2 (influenza A virus A/Singapore/INFIMH-16-0019/2016 (H3N2)).
The target of experiment [3] is hemagglutinin (HA) of influenza A/Switzerland/9715293/2013 H3N2 (influenza A virus A/Switzerland/9715293/2013 (H3N2)).
In experiment [4] the target is hemagglutinin (HA) of influenza B/Brisbane/60/2008 B-Vic (influenza B virus B/Brisbane/60/2008).
For experiment [5], the target named is hemagglutinin (HA) of influenza B/Colorado/06/2017 B-Vic (influenza B virus B/Colorado/06/2017).
In experiment [6] the target is hemagglutinin (HA) of influenza B/Maryland/15/2016 B-Vic (influenza B virus B/Maryland/15/2016).
The target of experiment [7] is hemagglutinin (HA) of influenza B/Phuket/3073/2013 B-Yam (influenza B virus B/Phuket/3073/2013).
Experiment [8] deals with hemagglutinin (HA) of influenza A/Cambodia/e0826360/2020 H3N2 (influenza A virus A/Cambodia/e0826360/2020 (H3N2)).
The target of experiment [9] is hemagglutinin (HA) of influenza A/Kansas/14/2017 H3N2 (influenza A virus A/Kansas/14/2017 (H3N2)).
Experiment [10] concerns the target hemagglutinin (HA) of influenza B/California/12/2015 B-Yam (influenza B virus B/California/12/2015).
The target in experiment [11] is hemagglutinin (HA) of influenza B/Washington/02/2019 B-Vic (influenza B virus B/Washington/02/2019).
Experiment [12] concerns the target hemagglutinin (HA) of influenza A/Brisbane/02/2018 H1N1 (influenza A virus A/Brisbane/02/2018 (H1N1)).
The target in experiment [13] is hemagglutinin (HA) of influenza A/Darwin/6/2021 (influenza A virus A/Darwin/6/2021).
The target in experiment [14] is hemagglutinin (HA) of influenza A/Hawaii/70/2019 (influenza A virus A/Hawaii/70/2019).
The target in experiment [15] is hemagglutinin (HA) of influenza A/Kansas/14/2017 H3N2 (influenza A virus A/Kansas/14/2017 (H3N2)). The source holds these as a separate data set.
The target in experiment [16] is hemagglutinin (HA) of influenza A/Singapore/INFIMH-16-0019/2016 H3N2 (influenza A virus A/Singapore/INFIMH-16-0019/2016 (H3N2)). This is another data set of the same source.
Experiment [17] deals with hemagglutinin (HA) of influenza A/Sydney/5/2021 (influenza A virus A/Sydney/5/2021).
Experiment [18] deals with hemagglutinin (HA) of influenza A/Tasmania/503/2020 (H3N2) (influenza A virus A/Tasmania/503/2020 (H3N2)).
Experiment [19] concerns the target hemagglutinin (HA) of influenza A/Wisconsin/588/2019 (influenza A virus A/Wisconsin/588/2019).
Experiment [20] has as its target hemagglutinin (HA) of influenza B/Austria/1359417/2021 (influenza B virus B/Austria/1359417/2021).
The target of experiment [21] is hemagglutinin (HA) of influenza B/Colorado/06/2017 B-Vic (influenza B virus B/Colorado/06/2017). This is another data set of the same source.
The target of experiment [22] is hemagglutinin (HA) of influenza B/Phuket/3073/2013 B-Yam (influenza B virus B/Phuket/3073/2013). This is another data set of the same source.
In experiment [23] the target is hemagglutinin (HA) of influenza B/Washington/02/2019 B-Vic (influenza B virus B/Washington/02/2019). The source holds these as a separate data set.
For experiment [24], the target named is hemagglutinin (HA) of influenza A/Brisbane/02/2018 H1N1 (influenza A virus A/Brisbane/02/2018 (H1N1)). The source holds these as a separate data set.
Experiment [25] concerns the target hemagglutinin (HA) of influenza A/Hong Kong/45/2019 H3N2 (influenza A virus A/Hong Kong/45/2019 (H3N2)).
For experiment [26], the target named is hemagglutinin (HA) of influenza A/Victoria/2570/2019 H1N1 (influenza A virus A/Victoria/2570/2019 (H1N1)).
In experiment [27] the target is hemagglutinin (HA) of influenza A/Brisbane/02/2018 H1N1 (influenza A virus A/Brisbane/02/2018 (H1N1)). This is another data set of the same source.
Experiment [28] addresses hemagglutinin (HA) of influenza A/Victoria/2570/2019 H1N1 (influenza A virus A/Victoria/2570/2019 (H1N1)). This is another data set of the same source.

Turning to SAB-176 (antibody), the HAI titer in experiment [1] was 1024 titer; in [2], 512 titer; in [3] it was more than 2048 titer; in experiment [4] it was 64 titer; in experiment [5], 512 titer; in experiment [6], 512 titer. The substance also gave an HAI titer in experiment [7] of 512 titer.

Regarding SAB-176 Lot 1 (PD1901102QR) (antibody), the HAI titer in [8] was 128 titer; in experiment [9], 64 titer; in [2], 512 titer; in experiment [10], 128 titer; in experiment [5], 256 titer; in experiment [6], 256 titer. In addition, the HAI titer in [7] was 128 titer; in experiment [11], 64 titer; in [12] it was 1280 titer; in [13], 113 titer; in experiment [14], 1280 titer; in experiment [15], 40 titer. In addition, the HAI titer was 320 titer in experiment [16]; 320 titer in experiment [17]; 40 titer in experiment [18]; 320 titer in experiment [19]; 28 titer in experiment [20]; 160 titer in experiment [21]. Also, the HAI titer in experiment [22] is 160 titer; in experiment [23] it was 160 titer; in experiment [24] it was 512 titer; in experiment [25], 64 titer; in experiment [26], 256 titer. In addition, the HAI titer ratio of SAB-176 to hIVIG lay in the range of 4 to 8 X in experiment [8]; 2 to 16 X in [9]; 8 to 32 X in experiment [2]; 16 to 32 X in [10]; 16 to 32 X in experiment [5]; 16 to 32 X in experiment [6]. Moreover, the HAI titer ratio of SAB-176 to hIVIG in [7] was 16 X; in experiment [11], 8 to 16 X; in experiment [24], 16 to 32 X; in [25], 4 to 8 X; in experiment [26], 16 to 32 X. For the same substance, the HAI titer of drug product in [2] was found to be 7680 titer; in [6] it was 3840 titer; in experiment [7], 1920 titer.

Take SAB-176 Lot 2 (PD2001010QR) (antibody): the HAI titer in experiment [27] came out at 512 titer; in experiment [8], 256 titer; in experiment [9] it was 64 titer; in experiment [2], 512 titer; in experiment [28], 256 titer; in experiment [10] it was 128 titer. Moreover, the HAI titer is 256 titer in experiment [5]; 256 titer in experiment [6]; 256 titer in experiment [7]; 128 titer in experiment [11]; 1280 titer in experiment [12]; 113 titer in experiment [13]. The HAI titer in experiment [14] was 640 titer; in experiment [15] it was 40 titer; in experiment [16], 320 titer; in [17], 320 titer; in [18], 160 titer; in experiment [19] it was 640 titer. Also, the HAI titer worked out at 28 titer in experiment [20], 320 titer in [21], 160 titer in experiment [22] and 160 titer in [23]. Also, the HAI titer ratio of SAB-176 to hIVIG in [27] was 16 to 32 X; in [8], 8 to 16 X; in [9], 2 to 16 X; in experiment [2] it was 8 to 32 X; in [28], 16 to 32 X; in experiment [10] it was 16 to 32 X. The HAI titer ratio of SAB-176 to hIVIG in experiment [5] is 16 to 32 X; in experiment [6], 16 to 32 X; in [7], 32 X; in [11], 16 to 32 X. Moreover, the HAI titer of drug product turned out to be 7170 titer in [2], 3580 titer in experiment [6] and 3580 titer in [7].

On to SAB-176 Lot 3 (antibody), for which the HAI titer was determined as 512 titer in [27]; 256 titer in [8]; 512 titer in [9]; 512 titer in experiment [2]; 256 titer in experiment [28]; 128 titer in experiment [10]. For the same substance, the HAI titer was found to be 256 titer in experiment [5], 128 titer in experiment [6], 128 titer in experiment [7] and 64 titer in experiment [11]. The HAI titer ratio of SAB-176 to hIVIG in [27] fell in the range of 16 to 32 X; in experiment [8] it was 8 to 16 X; in [9], 16 to 128 X; in experiment [2] it was 8 to 32 X; in [28], 16 to 32 X; in experiment [10] it was 16 to 32 X. Moreover, the HAI titer ratio of SAB-176 to hIVIG is 16 to 32 X in [5], 8 to 16 X in experiment [6], 16 X in experiment [7] and 8 to 16 X in experiment [11].

Turning to SAB-176 Lot 5 (PD2203294QR) (antibody), the HAI titer of drug substance in [8] was 3840 titer; in [28] it was 7680 titer; in [7], 1920 titer; in [11], 3840 titer. Also, the HAI titer in experiment [12] came to 1280 titer; in experiment [13] it was 320 titer; in experiment [14] it was 1810 titer; in experiment [15], 320 titer; in [16], 320 titer; in experiment [17], 1280 titer. Besides, the HAI titer in [18] is 640 titer; in [19] it was 1280 titer; in experiment [20], 40 titer; in experiment [21], 160 titer; in experiment [22], 80 titer; in [23], 320 titer.

Regarding SAB-176 Lot 6 (PD2204315QR) (antibody), the HAI titer of drug substance in [8] came to 7680 titer; in [28], 7680 titer; in [7], 1920 titer; in [11], 3840 titer. For the same substance, the HAI titer in experiment [12] is 1280 titer; in [13] it was 160 titer; in experiment [14] it was 1810 titer; in [15], 320 titer; in experiment [16] it was 320 titer; in [17], 1280 titer. In addition, the HAI titer was 640 titer in experiment [18]; 1280 titer in experiment [19]; 40 titer in experiment [20]; 160 titer in [21]; 160 titer in experiment [22]; 320 titer in [23].

Turning to negative control IgG (antibody), the HAI titer in [27], in [8], in experiment [1], in experiment [9], in [2] and in experiment [3] was less than 1 titer each time. The HAI titer in [28], in experiment [4], in experiment [10], in experiment [5], in experiment [6] and in experiment [7] was less than 1 titer in each case. Also, the HAI titer in experiment [11] and in experiment [25] was less than 1 titer in each case.
